# According to patent US20080069777A1:
# How the values were obtained:
# [1] = target: whole LFA-1 in which the α subunit contains an I-domain in the high affinity locked open state, on cells (HA cells) (human) (UniProt P05107); experiment: inhibition of ICAM binding to HA cells, Guava analysis; second experiment; second experiment, second lot of D2-57 IgG
# [2] = target: whole LFA-1 in which the α subunit contains an I-domain in the high affinity locked open state, on cells (HA cells) (human) (UniProt P05107); experiment: inhibition of ICAM binding to HA cells, Guava analysis; first experiment; first experiment
# [3] = target: whole LFA-1 in which the α subunit contains an I-domain in the high affinity locked open state, on cells (HA cells) (human) (UniProt P05107); experiment: cell-based or functional assay
# [4] = target: whole LFA-1 in which the α subunit contains an I-domain in the high affinity locked open state, on cells (HA cells) (human) (UniProt P05107); experiment: inhibition of ICAM binding to HA cells, Guava analysis; third experiment; third experiment
# [5] = target: whole LFA-1 in which the α subunit contains an I-domain in the high affinity locked open state, on cells (HA cells) (human) (UniProt P05107); experiment: inhibition of ICAM binding to HA cells, Guava analysis; fourth experiment; fourth experiment
# [6] = target: whole LFA-1 in which the α subunit contains an I-domain in the high affinity locked open state, on cells (HA cells) (human) (UniProt P05107); experiment: inhibition of ICAM binding to HA cells, Guava analysis; second experiment; second experiment, first lot of D2-57 IgG
# [7] = target: whole LFA-1 in which the α subunit contains an I-domain in the low affinity locked closed state, on cells (LA cells) (human) (UniProt P05107); experiment: phage ELISA, LA form of LFA-1, without Mg2+
# [8] = target: whole LFA-1 in which the α subunit contains an I-domain in the low affinity locked closed state, on cells (LA cells) (human) (UniProt P05107); experiment: phage ELISA, LA form of LFA-1, with Mg2+
# [9] = target: whole LFA-1 in which the α subunit contains an I-domain in the high affinity locked open state, on cells (HA cells) (human) (UniProt P05107); experiment: ICAM-1 blocking assay on HA cells, soluble Fab, flow cytometry; ligand ICAM-1/SV-PE; soluble Fab, ICAM-1 blocking on HA cells, FACS
# [10] = target: whole LFA-1 in which the α subunit contains an I-domain in the high affinity locked open state, on cells (HA cells) (human) (UniProt P05107); experiment: phage ELISA, HA form of LFA-1, with Mg2+; phage ELISA on HA cells, with Mg2+
# [11] = target: whole LFA-1 in which the α subunit contains an I-domain in the high affinity locked open state, on cells (HA cells) (human) (UniProt P05107); experiment: phage ELISA, HA form of LFA-1, without Mg2+; phage ELISA on HA cells, without Mg2+; signal at background
IC50 [1] [pM],IC50 [2] [pM],IC50 for inhibition of HA cell binding to keratinocytes [3] [pM],IC50 [4] [pM],IC50 [5] [pM],IC50 [6] [pM],ELISA signal (arbitrary units) [7],ELISA signal (arbitrary units) [8],IC50 [9] [pM],ELISA signal (arbitrary units) [10],ELISA signal (arbitrary units) [11],Binder
620,180,1000,240,680,590,–,–,–,–,–,"D2-57 IgG1 (antibody, V domains shown) VH: EVQLLESGGGLVQPGGSLRLSCAASGFTFSRYVMWWVRQAPGKGLEWVSYIWPSGGNTYYADSVKGRFTISRDNSKNTLYLQMNSLRAEDTAVYYCASSYDFWSNAFDIWGQGTMVTVSS VL: DIQMTQSPSSLSASVGDRVTITCRASQSIGSYLNWYQQKTGKAPKALIYAASSLQSGVPSRFSGSGSGTDFTLTISSLQLEDFATYYCQQSYSTPSFGQGTKVEIKR"
–,–,–,–,–,–,0.07,0.13,11500,0.68,0.09,"D2-57 Fab (Fab, V domains shown) VH: EVQLLESGGGLVQPGGSLRLSCAASGFTFSRYVMWWVRQAPGKGLEWVSYIWPSGGNTYYADSVKGRFTISRDNSKNTLYLQMNSLRAEDTAVYYCASSYDFWSNAFDIWGQGTMVTVSS VL: DIQMTQSPSSLSASVGDRVTITCRASQSIGSYLNWYQQKTGKAPKALIYAASSLQSGVPSRFSGSGSGTDFTLTISSLQLEDFATYYCQQSYSTPSFGQGTKVEIKR"
